This is an account of results in FireProtDB (doi:10.1038/75151).

The Tm is the temperature at which the thermal transition is half complete.

To fix the notation:
B1: Cold shock protein CspB, P41016 (parent)
chain: MQRGKVKWFNNEKGYGFIEVEGGSDVFVHFTAIQGEGFKTLEEGQEVSFEIVQGNRGPQAANVVKL

This data set covers variants of B1. Particulars: Bacillus caldolyticus, pH 7, Thermal, CD, Sodium cacodylate-HCl 0.1 M, reversible: yes, structure 1C9O, whole UniProt chain shown; for ddG of mutation (higher = less stable) / unfolding free energy: 70 °C.

As to R3E L66E, the melting temperature (Tm) came to 44.6 °C; the “change of melting temperature, mutant - wild type (higher = more stable)” value (“change of melting temperature, mutant” for short) was -32.3 °C; the “unfolding enthalpy (van 't Hoff)” value is 36.8 kcal/mol.

On to E46A, for which the “ddG of mutation (higher = less stable)” value amounted to 0.22 kcal/mol; the unfolding free energy turned out to be 0.86 kcal/mol; the Tm stood at 75.4 °C; the “change of melting temperature, mutant” value is -1.5 °C. The “unfolding enthalpy (van 't Hoff)” value came out at 57.6 kcal/mol. Under “NaCl 2 M”, the “ddG of mutation (higher = less stable)” value was 0.12 kcal/mol and the unfolding free energy turned out to be 2.08 kcal/mol.

For the variant V64T, the Tm stood at 75.1 °C; the “change of melting temperature, mutant” value was -1.8 °C; the “unfolding enthalpy (van 't Hoff)” value was found to be 58.3 kcal/mol. Moreover, under “NaCl 2 M”, the “ddG of mutation (higher = less stable)” value stood at 0.19 kcal/mol and the unfolding free energy amounted to 2.01 kcal/mol.

With R3E, the Tm turned out to be 59.1 °C; the “change of melting temperature, mutant” value is -17.8 °C; the “unfolding enthalpy (van 't Hoff)” value turned out to be 45.6 kcal/mol. Moreover, for the setting “NaCl 2 M”, the “ddG of mutation (higher = less stable)” value was 1 kcal/mol and the unfolding free energy is 1.2 kcal/mol.

For L66E, where the note is “NaCl 2 M”, the “ddG of mutation (higher = less stable)” value was found to be 1.27 kcal/mol and the unfolding free energy was 0.93 kcal/mol.

With L66A, under “NaCl 2 M”, the “ddG of mutation (higher = less stable)” value worked out at 0.07 kcal/mol and the unfolding free energy was determined as 2.13 kcal/mol.

Take Q53E: the “ddG of mutation (higher = less stable)” value worked out at 0.1 kcal/mol; the unfolding free energy was determined as 0.98 kcal/mol; the Tm came out at 76.1 °C; the “change of melting temperature, mutant” value was -0.8 °C. For the same variant, the “unfolding enthalpy (van 't Hoff)” value worked out at 58.8 kcal/mol. In addition, for the setting “NaCl 2 M”, the “ddG of mutation (higher = less stable)” value stood at 0 kcal/mol and the unfolding free energy stood at 2.2 kcal/mol.

For S24D, the “ddG of mutation (higher = less stable)” value is -0.22 kcal/mol; the unfolding free energy is 1.29 kcal/mol; the melting temperature (Tm) worked out at 77.8 °C; the “change of melting temperature, mutant” value worked out at 0.9 °C. Further, the “unfolding enthalpy (van 't Hoff)” value was determined as 61.7 kcal/mol. Moreover, where the note is “NaCl 2 M”, the “ddG of mutation (higher = less stable)” value is -0.19 kcal/mol and the unfolding free energy was 2.39 kcal/mol.

On to T31S, for which the “ddG of mutation (higher = less stable)” value was -0.17 kcal/mol; the unfolding free energy amounted to 1.24 kcal/mol; the Tm amounted to 77.8 °C; the “change of melting temperature, mutant” value is 0.9 °C. Also, the “unfolding enthalpy (van 't Hoff)” value amounted to 59.8 kcal/mol. Besides, for the setting “NaCl 2 M”, the “ddG of mutation (higher = less stable)” value is -0.19 kcal/mol and the unfolding free energy amounted to 2.39 kcal/mol.

On to N11S, for which the “ddG of mutation (higher = less stable)” value is -0.33 kcal/mol; the unfolding free energy was 1.41 kcal/mol; the Tm came to 79.2 °C; the “change of melting temperature, mutant” value is 2.3 °C. Besides, the “unfolding enthalpy (van 't Hoff)” value was 58.8 kcal/mol. In addition, under “NaCl 2 M”, the “ddG of mutation (higher = less stable)” value is -0.22 kcal/mol and the unfolding free energy was determined as 2.41 kcal/mol.

Regarding Y15F, the “ddG of mutation (higher = less stable)” value turned out to be 0.05 kcal/mol; the unfolding free energy came to 1.03 kcal/mol; the Tm was 76.7 °C; the “change of melting temperature, mutant” value was -0.2 °C. For the same variant, the “unfolding enthalpy (van 't Hoff)” value was determined as 56.6 kcal/mol. In addition, for the setting “NaCl 2 M”, the “ddG of mutation (higher = less stable)” value is -0.07 kcal/mol and the unfolding free energy is 2.27 kcal/mol.

For the variant Q2L, the “ddG of mutation (higher = less stable)” value is -0.55 kcal/mol; the unfolding free energy stood at 1.63 kcal/mol; the Tm turned out to be 80.9 °C; the “change of melting temperature, mutant” value was found to be 4 °C. Besides, the “unfolding enthalpy (van 't Hoff)” value was found to be 57.8 kcal/mol. Where the note is “NaCl 2 M”, the “ddG of mutation (higher = less stable)” value is -0.29 kcal/mol and the unfolding free energy is 2.49 kcal/mol.

As for G23Q, the “ddG of mutation (higher = less stable)” value came out at 0.29 kcal/mol; the unfolding free energy was 0.79 kcal/mol; the Tm was determined as 74.7 °C; the “change of melting temperature, mutant” value was -2.2 °C. For the same variant, the “unfolding enthalpy (van 't Hoff)” value turned out to be 59.5 kcal/mol. For the setting “NaCl 2 M”, the “ddG of mutation (higher = less stable)” value was 0.31 kcal/mol and the unfolding free energy worked out at 1.89 kcal/mol.
